This is an account of results in patent US20030166163A1.

In assay [1] the target is human intermediate affinity IL-2Rβγ on TF-1β cells (human) (UniProt P14784). The assay is described as follows: cell-based or functional assay.
In assay [2] the target is human IL-2Rαβγ on Kit-225 cells (human) (UniProt P01589). Briefly: cell-based or functional assay.
The target in assay [3] is murine high affinity IL-2Rαβγ on CTLL-2 cells (murine) (UniProt P01590). The assay is described as follows: cell-based or functional assay.
Assay [4] concerns the target FcγR receptors on U937 cells. The assay is described as follows: cell-based ELISA on U937 cells, detection with FITC-conjugated anti-human IgG Fc F(ab')2.

For orientation: EC50 means the concentration that produces a half-maximal response. Lower therefore signals an effect from little substance.

UniProt P14784, sequence (P14784 27-551, chain 1 of 2): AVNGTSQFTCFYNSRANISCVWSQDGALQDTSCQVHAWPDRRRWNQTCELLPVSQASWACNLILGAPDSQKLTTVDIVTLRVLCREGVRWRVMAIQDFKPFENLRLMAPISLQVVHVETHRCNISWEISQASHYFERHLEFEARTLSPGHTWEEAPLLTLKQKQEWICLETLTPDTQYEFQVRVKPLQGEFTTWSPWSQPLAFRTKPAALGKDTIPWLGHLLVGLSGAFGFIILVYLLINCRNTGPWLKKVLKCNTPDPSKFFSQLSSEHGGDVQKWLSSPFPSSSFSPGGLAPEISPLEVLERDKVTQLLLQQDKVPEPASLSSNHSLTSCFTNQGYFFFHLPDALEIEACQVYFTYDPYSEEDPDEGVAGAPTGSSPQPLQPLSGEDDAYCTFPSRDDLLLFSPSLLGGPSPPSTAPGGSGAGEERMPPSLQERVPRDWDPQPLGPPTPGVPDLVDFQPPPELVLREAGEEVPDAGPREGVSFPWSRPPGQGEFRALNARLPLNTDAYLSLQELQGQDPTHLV
UniProt P14784, sequence (P31785 23-369, chain 2 of 2, further chain): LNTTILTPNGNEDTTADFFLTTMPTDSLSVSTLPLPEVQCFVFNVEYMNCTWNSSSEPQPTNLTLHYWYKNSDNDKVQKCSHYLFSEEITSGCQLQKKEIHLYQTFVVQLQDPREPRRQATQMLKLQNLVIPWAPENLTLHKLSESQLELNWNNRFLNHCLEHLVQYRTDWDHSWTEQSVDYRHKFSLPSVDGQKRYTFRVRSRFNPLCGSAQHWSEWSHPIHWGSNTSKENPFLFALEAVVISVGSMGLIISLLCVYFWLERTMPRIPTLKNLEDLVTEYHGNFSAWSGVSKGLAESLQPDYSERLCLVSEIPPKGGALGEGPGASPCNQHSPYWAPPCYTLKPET
UniProt P01589, sequence (P01589 22-272, chain 1 of 3): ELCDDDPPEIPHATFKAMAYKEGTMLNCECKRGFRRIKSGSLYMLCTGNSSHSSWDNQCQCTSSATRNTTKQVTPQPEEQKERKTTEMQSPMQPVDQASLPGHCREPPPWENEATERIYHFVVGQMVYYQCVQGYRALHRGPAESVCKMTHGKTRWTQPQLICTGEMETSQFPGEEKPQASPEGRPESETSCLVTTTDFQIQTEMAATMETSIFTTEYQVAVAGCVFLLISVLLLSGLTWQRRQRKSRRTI
UniProt P01589, sequence (P14784 27-551, chain 2 of 3, further chain): as the sequence (P14784 27-551, chain 1 of 2) above
UniProt P01589, sequence (P31785 23-369, chain 3 of 3, further chain): as the sequence (P31785 23-369, chain 2 of 2, further chain) above
UniProt P01590, sequence (P01590 22-268, chain 1 of 3): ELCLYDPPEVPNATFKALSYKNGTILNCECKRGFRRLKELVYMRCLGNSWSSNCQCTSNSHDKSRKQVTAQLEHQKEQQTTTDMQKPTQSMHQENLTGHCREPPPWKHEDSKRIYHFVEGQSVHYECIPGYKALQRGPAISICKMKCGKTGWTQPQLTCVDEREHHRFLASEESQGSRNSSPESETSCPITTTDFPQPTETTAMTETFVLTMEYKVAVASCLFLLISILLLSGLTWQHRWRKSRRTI
UniProt P01590, sequence (P16297 27-539, chain 2 of 3, further chain): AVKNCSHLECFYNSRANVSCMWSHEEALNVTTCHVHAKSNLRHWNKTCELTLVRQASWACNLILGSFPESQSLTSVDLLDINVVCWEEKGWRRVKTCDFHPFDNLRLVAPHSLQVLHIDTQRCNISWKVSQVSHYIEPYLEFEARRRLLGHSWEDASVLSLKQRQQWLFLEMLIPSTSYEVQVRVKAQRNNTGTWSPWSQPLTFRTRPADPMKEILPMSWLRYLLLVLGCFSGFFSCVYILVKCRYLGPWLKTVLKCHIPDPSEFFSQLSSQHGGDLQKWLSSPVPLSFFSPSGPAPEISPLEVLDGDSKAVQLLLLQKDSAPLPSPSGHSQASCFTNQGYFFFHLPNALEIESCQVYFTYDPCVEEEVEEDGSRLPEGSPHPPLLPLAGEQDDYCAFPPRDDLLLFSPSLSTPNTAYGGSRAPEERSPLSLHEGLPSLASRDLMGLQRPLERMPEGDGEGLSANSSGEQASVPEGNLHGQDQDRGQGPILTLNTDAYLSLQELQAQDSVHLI
UniProt P01590, sequence (P34902 23-369, chain 3 of 3, further chain): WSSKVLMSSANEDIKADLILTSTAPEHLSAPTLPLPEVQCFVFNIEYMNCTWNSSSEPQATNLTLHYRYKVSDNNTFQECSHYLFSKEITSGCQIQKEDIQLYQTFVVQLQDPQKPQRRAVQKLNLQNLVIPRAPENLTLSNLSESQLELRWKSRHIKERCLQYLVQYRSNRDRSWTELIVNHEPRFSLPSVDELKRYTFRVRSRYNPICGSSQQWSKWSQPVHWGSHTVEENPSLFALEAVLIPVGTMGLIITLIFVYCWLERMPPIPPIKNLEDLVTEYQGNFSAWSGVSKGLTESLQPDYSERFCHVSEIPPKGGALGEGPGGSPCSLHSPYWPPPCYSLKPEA

For N-Glycanase treated huKS-IL2, in assay [1], the ED50 Ratio = ED50 [TF1-β]/ED50 [CTLL-2], cell proliferation was determined as 0.45 and the fold increase of the ED50 Ratio (TF-1β/CTLL-2) relative to huKS-IL2 is 2 fold.
huKS-ala-IL2(N88R): in assay [2], the ED50, proliferation of Kit 225 cells was determined as 0.13. Also, in assay [1], the ED50 Ratio = ED50 [TF1-β]/ED50 [CTLL-2], cell proliferation came out at 2300; the ED50 Ratio TF-1β/Kit-225, cell proliferation stood at 52000; the shift in selectivity (ED50 ratio TF-1β/CTLL-2) relative to KS-ala-IL2 was 20000 fold. In assay [3], this substance showed an ED50, proliferation of CTLL-2 cells of 3.
Turning to N-Glycanase treated 14.18-IL2, in assay [1], the ED50 Ratio = ED50 [TF1-β]/ED50 [CTLL-2], cell proliferation is 0.21 and the fold increase of the ED50 ratio (TF-1β/CTLL-2) compared to untreated 14.18-IL2 was determined as 3 fold.
On to 14.18-IL2, for which, in assay [1], the ED50 Ratio = ED50 [TF1-β]/ED50 [CTLL-2], cell proliferation turned out to be 0.07.
As for huKS-ala-IL2, in assay [2], the ED50, proliferation of Kit-225 cells was 0.08. In assay [1], the ED50 Ratio = ED50 [TF1-β]/ED50 [CTLL-2], cell proliferation came out at 0.17 and the ED50 Ratio TF-1β/Kit-225, cell proliferation amounted to 10.4. The substance also had an ED50, proliferation of CTLL-2 cells in assay [3] of 5. The same substance registered an EC50 in assay [4] of 5 µg/mL.
Take huKS-IL2: in assay [1], the ED50 Ratio = ED50 [TF1-β]/ED50 [CTLL-2], cell proliferation turned out to be 0.11; the ED50 Ratio TF-1β/Kit-225, cell proliferation amounted to 4; the fold change of the ED50 ratio (TF-1β/CTLL-2) against free IL-2 came out at 5 fold.
